Key:
[1] = system: leptin resistant mHypoA2/21-SOCS3 cells; assay: Biological activity test: overcoming leptin resistance (STAT3 phosphorylation, western blot); format: cell-based; conditions: protein treated 1 hour, then 10 ng/mL mouse leptin 30 minutes
Experimental: To validate that cell-permeable truncated SOCS3 recombinant protein can overcome leptin resistance, the purified recombinant proteins were treated at leptin resistant cell line mHypoA2/21-SOCS3. mHypoA2/21-SOCS3 was produced by over-expressing SOCS3 at mouse hypothalamic neuron mHypoA2/21, and cultured using DMEM containing 10% FBS and 7 mg/mL geneticin. Cells were seeded at the concentration of 150000 cells/60 mm plate and on the following day the medium was replaced with 7 mg/mL geneticin containing serum free DMEM and starved the cells for the following 16 hours. Purified CP-SD recombinant proteins were diluted into 7 mg/mL geneticin containing serum free DMEM and treated for 1 hour, proteins were removed, and 10 ng/mL mouse leptin was treated for 30 minutes.
The cells were lysed in a lysis buffer (150 mM NaCl, 20 mM Tris, 1% triton-X-100, pH 7.5) containing protease inhibitor and […], incubated for 20 min at 4° C., and centrifuged at 13,000 rpm for 20 min at 4° C. Equal amounts of lysates were separated on 10% SDS-PAGE gels and transferred to a PVDF membrane. The membranes were blocked using TBST buffer 5% bovine serum albumin (BSA) and for western blot analysis incubated with the following antibodies diluted in TBST buffer 5% bovine serum albumin (BSA): anti-phospho-STAT3 (Cell Signaling Technology, USA), anti-STAT3 (Cell Signaling Technology, USA) and anti-myc (Cell Signaling Technology, USA), then HRP conjugated anti-rabbit secondary antibody (Cell Signaling Technology, USA) and anti-mouse secondary antibody (Cell Signaling Technology, USA). The protein bands were detected with ECL solution using luminescent image analyzer (ImageQuant LAS 500, GE Healthcare).

[2] = Turbidity with thermal stress of 37° C. (absorbance at 350 nm); format: physicochemical; conditions: for stability (turbidity) in serum free medium: thermal stress of 37° C.
Experimental: The recombinant proteins were diluted in their storage buffer or serum free DMEM medium and added into wells of a clear 96 well plate. The plate was incubated at 37° C. and the absorbance of each well was measured at 350 nm every 30 minutes in a microplate reader (Synergy H1, BioTek).

[3] = biological target: T1, Phosphorylated human leptin receptor peptide (QRQPFVK[pY] ATLISNSK), phosphorylated Y985 (Homo sapiens, UniProt P48357); assay: Binding affinity to leptin receptor by isothermal titration calorimetry (ITC); conditions: leptin receptor peptide phosphorylated at Y985, storage buffer pH 4.0
T1 construct: Phosphorylated human leptin receptor peptide (QRQPFVK[pY] ATLISNSK); purchased Anygen (Gwangju, Korea); host or cells: synthetic peptide
Experimental: The binding affinity of cell-permeable truncated SOCS3 SH2 domain recombinant proteins to leptin receptor was analysed using isothermal titration calorimetry (ITC). Phosphorylated human leptin receptor peptide (QRQPFVK[pY] ATLISNSK) used in the experiment was acquired from Anygen (Gwangju, Korea). The binding affinity of aMTD524-P2-1-6 was measured using the following methods. Leptin receptor peptide was dissolved into DMSO and was diluted into storage buffer (50 mM sodium acetate, 50 mM NaCl, pH 4.0) to reach a final peptide concentration of 400 μM and final DMSO concentration of 0.5%. Using dialysis method, purified aMTD524-P2-1-6 was maintained at the identical batch storage buffer, and was diluted to reach the final concentration of 50 μM. Next, binding affinity was measured using ITC (Auto-ITC200).

Kd [3] [µM] | Molecule | overcoming leptin resistance (STAT3 phosphorylation level) [1] | stability (turbidity) in serum free medium [2] | stability (turbidity) in storage buffer ([2]; thermal stress of 37° C. for 3 hours, storage buffer)
 | aMTD524-P2-1-21: SEQ ID No. 279; contains SH2 (T52-A62), (L69-Q96), (V120-M128) and (A164-N185) (protein, Amino acid Sequence of aMTD-P2-1-21) TGGEANLLLSAGSGSGSGSGSGSGSGSAVALIVVPALAPEAAAKLIRDSSDQRHFFTLSVKTQSGTKNLRIQGGGGSGGGGSGGGGSGGGGSVLKLVHHYMGSGSGSGSAYYIYSGGEKIPLVLSRPLSS | did not |  | 
 | aMTD830-P2-1-24B: SEQ ID No. 261; aMTD830-replaced P2-1-24B (protein, Amino acid Sequence of aMTD830-P2-1-24B, aMTD830-replaced P2-1-24B) IALVAAPVALVPEAAAKLIRDSSDQRHFFTLSVKTQSGTKNLRIQGGGGSGGGGSGGGGSGGGGSHHYMGSGSGSGSAYYIYSGGEKIPLVLSRPLSSNEAAAKEAAAKEAAAKMAEQSDKDVKYYTLEEIQKHKDSKSTWLILHHKVYDLTKFLEEHPGGEEVLGEQAGGDATENFEDVGHSTDARELSKTYIIGELHPDDRSKIAKPSETL | overcame leptin resistance | stable | 
8 | aMTD524-P2-1-6: SEQ ID No. 268; his tag-conjugated aMTD524-P2-1 (protein, His tag; Amino acid Sequence of aMTD524-P2-1-6) GSSHHHHHHSSGLVPRGSHMAVALIVVPALAPEAAAKLIRDSSDQRHFFTLSVKTQSGTKNLRIQ | overcame leptin resistance |  | stable
 | aMTD830-P2-1B: SEQ ID No. 255; aMTD830-replaced P2-1B, SH2 (L69-Q96) and SDB (protein, Amino acid Sequence of aMTD830-P2-1B, aMTD830-replaced P2-1B, SH2 (L69-Q96) and SDB) IALVAAPVALVPEAAAKLIRDSSDQRHFFTLSVKTQSGTKNLRIQEAAAKEAAAKEAAAKMAEQSDKDVKYYTLEEIQKHKDSKSTWLILHHKVYDLTKFLEEHPGGEEVLGEQAGGDATENFEDVGHSTDARELSKTYIIGELHPDDRSKIAKPSETL | overcame leptin resistance | stable | 
 | aMTD524-37: SEQ ID No. 283; truncate from the SH2 domain containing aMTD and SH2 (L69-Q96) (protein, Amino acid Sequence of aMTD524-37) AVALIVVPALAPEAAAKLIRDSSDQRHFFTLSVKTQSGTKNLRIQCEGGSFSLQSDPRSTQPVPRFDCVLKLVHHYM | did not overcome leptin resistance |  | 
 | aMTD830-P2-1-32B: SEQ ID No. 266; aMTD830-replaced P2-1-32B (protein, Amino acid Sequence of aMTD830-P2-1-32B, aMTD830-replaced P2-1-32B) IALVAAPVALVPEAAAKLIRDSSDQRHFFTLSVKTQSGTKNLRIQGGGGSGGGGSGGGGSGGGGSAYYIYSGGEKIPLVLSRPLSSNEAAAKEAAAKEAAAKMAEQSDKDVKYYTLEEIQKHKDSKSTWLILHHKVYDLTKFLEEHPGGEEVLGEQAGGDATENFEDVGHSTDARELSKTYIIGELHPDDRSKIAKPSETL | overcame leptin resistance | stable | 
 | aMTD524-P2-1-23: SEQ ID No. 280; contains SH2 (L69-Q96), SH2 (H125-M128) and SH2 (A164-N185) (protein, Amino acid Sequence of aMTD-P2-1-23) AVALIVVPALAPEAAAKLIRDSSDQRHFFTLSVKTQSGTKNLRIQEAAAKEAAAKEAAAKEAAAKHHYMGSGSGSGSAYYIYSGGEKIPLVLSRPLSSN | did not |  | 
 | aMTD524-P2-1-24: SEQ ID No. 281; same regions as aMTD524-P2-1-23 with different linkers (protein, Amino acid Sequence of aMTD-P2-1-24, same regions as aMTD524-P2-1-23 with different linkers) AVALIVVPALAPEAAAKLIRDSSDQRHFFTLSVKTQSGTKNLRIQGGGGSGGGGSGGGGSGGGGSHHYMGSGSGSGSAYYIYSGGEKIPLVLSRPLSSN | overcame leptin resistance | instability | 
 | aMTD524-36: SEQ ID No. 282; truncate from the SH2 domain containing aMTD and SH2 (L69-Q96) (protein, Amino acid Sequence of aMTD524-36) AVALIVVPALAPEAAAKGFYWSAVTGGEANLLLSAEPAGTFLIRDSSDQRHFFTLSVKTQSGTKNLRIQCEGGSFSLQSDPRSTQPVPRFDCVLKLVHHYMGSGSGSGSAYYIYSGGEKIPLVLSRPLSSN | did not overcome leptin resistance |  | 

Reference: patent US20230357339A1, “Development of Cell-Permeable Truncated SOCS3 SH2 Domain (CP-SD) Recombinant Protein for Anti-Obesity Agent” (Cellivery Therapeutics, Inc., priority 2020, published 2023)
